Experimental data: publication PMC6534611

Biological target: Ptch1 variant △893-899/T903A/K904A/Q905A/N1000Q (human) (UniProt Q13635)
Experiment: not stated; Ptch1 variant alone or in complex with ShhNp; Supplementary Fig. 8c

stoichiometry N: 4
Substance: Ptch1 variant △893-899/T903A/K904A/Q905A/N1000Q (from UniProt Q13635 1-1305) (receptor)
